Data from US12564623B2, “Methods and compositions for treating cancer” (The University of Chicago, priority 2017, dated 2026).
Entries after “also recorded” stand apart in the source; their conditions may differ.

Legend:
[1] = system: Human or murine cancer cells; assay: Cancer cell viability and apoptosis (Calcein AM, Caspase 3/7, Annexin V); format: cell-based; settings: 50 nM; 24 hrs viability, 6 hrs apoptosis
Experimental: Human PMN'S broadly and selectively kill cancer cells. Human peripheral blood neutrophils (PMN) were isolated from healthy donors and incubated in serum-free DMEM to collect their secreted factors (PMN-media). (A-B) Human or murine cancer cells (A) or healthy cells (b) were incubated with PMN media or control serum-free DMEM (Ctrl media) for 24 hours. Cell viability was assessed by Calcein AM staining. (C) Human or murine cancer cells were treated with PMN media or Ctrl media for 6 hours. Caspase 3/7 activity was examined by a luminescence activity assay, while cell surface Annexin V staining was assessed by flow cytometry. […] (FIG. 1).
(FIG. 6A) Cancer cells or healthy cells were treated with 50 nM purified native ELANE or control DMEM media (Ctrl) media for 24 hrs, and cell viability was assessed by Calcein AM staining. (FIG. 6B) Cancer cells were treated with 50 nM ELANE or Ctrl media for 6 hrs, and apoptosis was assessed by Caspase 3/7 luminesce activity assay or cell surface Annexin V staining by flow cytometry. *, p<0.05, Student's t-test.

[2] = system: MDA-MB-231, A549, MEL888, M1, 4195, E0771, LLC1, B16F10 tumors; assay: Tumor growth in xenograft, PDX and syngeneic models; format: in vivo, mice; settings: 11.6 μg intratumorally once/day for 5 days
Experimental: MDA-MB-231, A549, or MEL888 cells (xenograft model) were injected into athymic nude mice; M1 or 4195 tumors (TNBC PDX models) were propagated in SCID mice; and E0771, LLC1, or B16F10 cells (syngeneic models) were injected into C57BL/6 mice. Once tumors reached ˜100 mm^3, ELANE (11.6 μg), or PMSF-ELANE (11.6 μg) were delivered intratumorally once/day for 5 days. n=8-15 mice/group. Tumor volume was assessed by calipers. Kaplan-Meier curve was plotted and the logrank test (Mentel-Cox method) was used for mouse survival analysis. Day 0 refers to the first treatment day. End point of survival is defined as tumor volume >1000 mm^3. (FIG. 15)

[3] = system: tumors; assay: Tumor apoptosis markers and CD95 staining after intratumoral delivery; format: in vivo, mice
Experimental: (FIG. 16A) MDA-MB-231, A549, or MEL888 (xenograft model) cells were injected into athymic nude mice; M1 or 4195 tumors (TNBC PDX models) were propagated in SCID mice; and E0771, LLC1, or B16F10 cells (syngeneic models) were injected into C57BL/6 mice. Once tumors reached ˜100 mm^3, ELANE (11.6 μg), or PMSF-ELANE (11.6 μg) were delivered intratumorally once/day for 5 days. Tumors were isolated on day 6, formalin fixed, and examined by immunohistochemistry or immunofluorescence staining for TUNEL, cleaved-PARP (cPARP), and cleaved CASP3 (cCASP3). Images were taken under 40×. (FIG. 16B) Tumor sections were stained with N-terminal (N-CD95) and C-terminal (C-CD95) specific anti-CD95 antibodies, followed by secondary antibody staining (Alex fluor 488 and 594 for C-CD95 and N-CD95 respectively). Fluorescence intensity quantification was performed on 3-4 areas/mouse.

[4] = system: E0771, B16F10, or LLC1 cancer cells; assay: Tumoral immune cell analysis by flow cytometry; format: in vivo, C57BL/6 mice; settings: 11.6 μg intratumorally once/day for 5 days, day 6
Experimental: E0771, B16F10, or LLC1 cancer cells were injected into C57BL/6 mice. Once tumors reached ˜100 mm^3, ELANE (11.6 μg) or PMSF-ELANE (11.6 μg) were delivered intratumorally once/day for 5 days. Tumors were isolated on day 6 and digested for immune cell analysis by flow cytometry. CD45+ cells are the total immune cells; macrophages (Mac) are defined as CD45+CD11b+CD11c^lowMHCII^low, neutrophils (Neu) are defined as CD45+CD11b+Ly6G+, dendritic cells (DC) are defined as CD45+CD11b+CD11c^highMHCII^high, B cells (b) are defined as CD45+B220+, NK cells (NK) are defined as CD45+NK1.1+CD16+, CD4+ T cells (CD4T) are defined as CD3+CD4+CD8−, CD8+ T cells (CD8T) are defined as CD3+CD8+CD4−, CD8 effector T cells (CD8Teff) are defined as CD3+CD8+CD4−CD62L−CD44+. *, p<0.05, Student's t-test. (FIG. 17)

[5] = system: E0771 cancer cells; assay: ELANE with anti-PD-L1 in a mouse model of TNBC; format: in vivo, C57BL/6 mice; settings: ELANE 11.6 μg + anti-PD-L1 100 μg
Experimental: E0771 cancer cells were injected into C57BL/6 mice. Once tumors reached ˜100 mm^3, mice were randomly separated into four groups: ELANE (11.6 μg), PMSF-inactivated ELANE (PMSF-ELANE), anti-PD-L1 (BioXCell, 10F.9G2, 100 μg), and ELANE (11.6 μg)+anti-PD-L1 (100 μg). n=8-9 mice/group. Anti-PD-L1 monoclonal antibody was injected intaperitoneally on days 10, 14, 18, and 22 after tumor inoculation. ELANE or PMSF-ELANE were delivered intra-tumorally when tumors reached ˜[…] (˜ 14 days post cancer cell injection). (FIG. 20A) Tumor volume was measured by calipers. (FIG. 20B) Kaplan-Meier curve was plotted and the logrank test (Mentel-Cox method) was used for mouse survival analysis. End point of survival is defined as tumor volume >1000 mm^3. *, p<0.05, Student's t-test.

[6] = system: human blood Tcells; assay: Apoptosis of human blood T cells in vitro; format: cell-based
Experimental: The efficiency by which these proteases cleaved CD95 was well correlated with their ability to kill cancer cells. Thus, targeting CD95 for degradation offers three important advantages over the FASL and siRNA/shRNA approaches described above. First, unlike the resistance reported with FASL, the inventors have shown that cancer cells are incapable of becoming resistant to this degradative pathway in vitro and in vivo. […] In fact, when tumor bearing mice were treated with ELANE, tumor and splenic T-cells numbers were elevated.

[7] = system: MDA-MB-231 cells; assay: ELANE inactivation by PMSF or A1AT and killing assay; format: cell-based, human; settings: PMSF 100 nM or A1AT 42 nM for 30 mins; 24 hrs
Experimental: (FIG. 5A) Purified native ELANE or PMN media was treated with PMSF (100 nM) or alpha-1-anti-trypsin (A1AT; 42 nM) for 30 mins and loss of ELANE catalytic activity was confirmed by a chromogenic substrate assay. Killing assays were performed by treating MDA-MB-231 cells for 24 hrs treatment and assessed by Calcein AM staining. (FIG. 5B) ELANE activity in PMN media was measured by a chromogenic substrate activity assay, and PMN killing was measured by Calcein AM staining on MDA-MB-231 cells exposed to PMN media for 4h.

B1: neutrophil elastase (protein, listed as Homo sapiens)
chain: MTLGRRLACLFLACVLPALLLGGTALASEIVGGRRARPHAWPFMVSLQLRGGHFCGATLIAPNFVMSAAHCVANVNVRAVRVVLGAHNLSRREPTRQVFAVQRIFENGYDPVNLLNDIVILQLNGSATINANVQVAQLPAQGRRLGNGVQCLAMGWGLLGRNRGIASVLQELNVTVVTSLCRRSNVCTLVRGRQAGVCFGDSGSPLVCNGLIHGIASFVRGGCASGLYPDAFAPVAQFVNWIDSIIQRSEDNPCPHPRDPDPASRTH
notes: purified native ELANE
cancer cell killing and apoptosis [1]: selectively kill cancer cells by inducing apoptosis
tumor growth [2]: attenuates tumor growth in many cancer models
C-CD95 levels in tumors ([3]; 11.6 μg intratumorally once/day for 5 days, day 6): attenuates C-CD95 levels in vivo
apoptosis in tumors ([3]; intratumoral delivery, mouse cancer models): induces cancer cell apoptosis; also recorded: induced widespread apoptosis
tumoral immune cells [4]: increases tumoral immune cells
efficacy with anti-PD-L1 [5]: enables anti-PDL1 efficacy
apoptosis of human blood T cells [6]: did not induce apoptosis in vitro
dependence of cancer cell killing on catalytic activity [7]: catalytic activity is required for its selective cancer cell killing
